Assay results: paper PMC11813800, “A concept of natural genome reconstruction.Part 2. Effect of extracellular double-stranded DNA fragments on hematopoietic stem cells”

Assays:
SLAMF5 (CD84) = molecular target: T1, SLAMF5 (CD84) (UniProt Q9UIB8 22-225); assay: EMSA; 10 mM PBS buffer, 37 °C, various ratios and times; native PAGE (6 % or 10 % tris-borate); pH not given; conditions: label: P32; blunt
T1 sequence: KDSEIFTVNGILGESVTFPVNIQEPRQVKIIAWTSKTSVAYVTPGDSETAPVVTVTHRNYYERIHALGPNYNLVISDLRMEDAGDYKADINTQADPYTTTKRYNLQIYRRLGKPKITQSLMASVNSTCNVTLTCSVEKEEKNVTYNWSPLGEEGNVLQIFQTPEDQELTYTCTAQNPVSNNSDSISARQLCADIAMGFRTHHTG

CD34 = CD34 (UniProt P28906 32-290); assay: as above; conditions: label: P32; blunt
CD34, sequence (P28906 32-290): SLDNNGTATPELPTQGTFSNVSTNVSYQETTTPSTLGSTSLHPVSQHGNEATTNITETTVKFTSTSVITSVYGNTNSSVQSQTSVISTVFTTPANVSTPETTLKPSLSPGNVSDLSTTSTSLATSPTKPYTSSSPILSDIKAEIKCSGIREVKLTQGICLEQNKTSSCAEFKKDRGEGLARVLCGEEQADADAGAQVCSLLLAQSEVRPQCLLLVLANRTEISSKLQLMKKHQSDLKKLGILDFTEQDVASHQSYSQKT

B1: (TTAGGG)9 telomeric repeat, 54 bp (dsDNA)
DNA 1: TTAGGGTTAGGGTTAGGGTTAGGGTTAGGGTTAGGGTTAGGGTTAGGGTTAGGG
DNA 2: CCCTAACCCTAACCCTAACCCTAACCCTAACCCTAACCCTAACCCTAACCCTAA
binding result (SLAMF5 (CD84)): binds
binding result (CD34): binds
